One molecule from paper PMC7159914 can be followed below.

This data set concerns the target VP3 (capping enzyme) (Rotavirus A, UniProt Q1WK45 1-835). The experiment in a line: BLI.

Consider GGCUUUUA (ssRNA) [biotinylated 8-mer ssRNA], for which the binding result is “binds”.
